Laboratory results as given in patent US20090240038A1 (Amgen, published 2009).

T1: Pep-3, NH2-LEEKKGNYVVTDHG-OH (human)
T1 construct: MW 1590 Da; free peptide of the Biacore and KinExA experiments
T1 peptide: H-LEEKKGNYVVTDHG-OH


How the values were obtained:
[1] = target: T2, EGFRvIII (type III deletion mutant of the epidermal growth factor receptor), expressed on cells (human, UniProt P00533 298-1210); experiment: FACS, NR6 M cells, 0.25 µg/ml mAb + Alexa anti-human IgG Fab, 37 C without glutathione
T2 construct: Also used for lysates of H1477 cells in Western blots; also called delta-EGFr; dEGFR
Description: XenoMax derived IgG1 recombinant antibodies were expressed, purified and quantitated as described previously. Antibodies were further assayed for their ability to internalize the EGFRvIII receptor in NR6 M cells. […] The cells were washed with cold 10% FCS in PBS and secondary antibody (SS Alexa antihuman IgG Fab) at 3 μg/ml Fab was added and incubated for 7 mins on ice. The cells were washed with cold 10% FCS in PBS once and then resuspended in cold media. Next, two sets of the triplicate were incubated at 37° C. and the remaining set was incubated at 4° C. for 1 hr. After that the cells incubated at 4° C. and one set of the cells incubated at 37° C. were treated with glutathione (as previously mentioned) for 1 hr on ice. Then the cells were washed and resuspended in 100 μl of cold 1% FCS in PBS and analyzed by FACS. The % internalization was calculated from the geometric mean obtained from the FACS analysis [(mean at 37° C. with glutathione—mean at 4° C. with glutathione)/(mean at 37° C. without glutathione—mean at 4° C. with glutathione)].

[2] = target: T1, Pep-3, NH2-LEEKKGNYVVTDHG-OH; experiment: logarithm of the measured Kd (Biacore, pep-3), listed beside simulated energies
[3] = target: T1, Pep-3, NH2-LEEKKGNYVVTDHG-OH; experiment: pep3 KinExA
Description: All KinExA experiments were conducted at room temperature (˜23° C.). For all equilibrium experiments, antigen was serially diluted into solutions having a constant mAb binding site concentration. For the first 10 titration points the dilutions were 2-fold and the 11th and 12th serial dilutions were 10-fold. The sample flow rate for all experiments was 0.25 mL/min and the labeling antibody flow rate was 0.5 mL/min. […] A sample volume of 250 μL was analyzed for the antibody-controlled experiment. Two or three replicates of each sample were measured for all equilibrium experiments. The equilibrium titration data were fit in a dual curve analysis to a 1:1 binding model using KinExA software (Version 2.4, Sapidyne Instruments).

[4] = target: T3, EGFRvIII-Rabbit Fc fusion protein (human; rabbit, UniProt P00533 298-645); experiment: ELISA, minilipofection supernatant titrated 1:2 on EGFRvIII-Rab Ig Fc fusion protein
T3 construct: whole entry named; also called EGFRvIII-RbFc; EGFRvIII-Rab Ig Fc fusion protein; not shown: Hinge-CH2-CH3 domain of rabbit IgG
Description: The secretion ELISA tests were performed as follows. […] The plates were washed five times with dH₂O. Recombinant antibodies were titrated 1:2 for 7 wells from the undiluted minilipofection supernatant. The plates were washed five times with dH₂O. A goat anti-human IgG Fc-specific HRP-conjugated antibody was added at a final concentration of 1 μg/mL for 1 hour at RT for the secretion plates and binding plates detected with 1 μg/ml Rb anti Hu Fc for 1 hour at room temperature. The plates were washed five times with dH₂O. The plates were developed with the addition of TMB for 30 minutes and the ELISA was stopped by the addition of 1 M phosphoric acid. Each ELISA plate was analyzed to determine the optical density of each well at 450 nm.

[5] = target: T2, EGFRvIII (type III deletion mutant of …); experiment: FACS titration on NR6 cells expressing EGFRvIII, PE fluorescence intensity (geo mean)

Binder	FACS geometric mean [1]	Ln(Kd) [2]	also measured
antibody 139 (antibody, human IgG1, V domains shown, Recombinant human IgG1 kappa; also called SC139) VH: EVQVLESGGGLVQPGGSLRLSCAASGFTFSSYAMSWVRQAPGKGLEWVSAISGSGGSTNYADSVKGRFTISRDNSKNTLYLQMNSLRAEDTAVYYCAGSSGWSEYWGQGTLVTVSS VL: DIQMTQSPSSLSASVGDRVTITCRASQGIRNNLAWYQQKPGKAPKRLIYAASNLQSGVPSRFTGSGSGTEFTLIVSSLQPEDFATYYCLQHHSYPLTSGGGTKVEIK	22.6		
antibody 250 (antibody, human IgG1, V domains shown, Recombinant human IgG1 kappa; also called SC250; sc250) VH: EGQLLESGGGWVQPGESLRLSCAASGFTFSSYAMSWVRQAPGKGLEWVSAISGSGGSTNYADSVKGRFTISRDNSKNTLYLQVNSLRVEDTAVYYCAGSSGWSEYWGQGTLVTVSS VL: DIQMTQSPSSLSASVGDSVTITCRTSQGIRKNLGWYQQKPGKAPKRLIYAASSLQSGVPSRFSGSGSGTEFTLTISRLQPEDFATYYCLQHHSYPLTFGGGTRVEIR	24.1		
antibody 13.1.2 (antibody, human IgG1, V domains shown, Hybridoma derived fully human IgG1 kappa) VH: QVQLVESGGGVVQPGRSLRLSCAASGFTFSSYGMHWVRQAPGKGLEWVAVIWYDGSNKYYVDSVKGRFTISRDNSKNTLYLQMNSLRAEDTAVYYCARDGWQQLAPFDYWGQGTLVTVSS VL: not shown	22.1	-16.3	
13.1.2 variant L99T-5.3 (antibody, V domains shown, also called Leu99Thr; leu99Thr) VH: QVQLVESGGGVVQPGRSLRLSCAASGFTFSSYGMHWVRQAPGKGLEWVAVIWYDGSNKYYVDSVKGRFTISRDNSKNTLYLQMNSLRAEDTAVYYCARDGWQQLAPFDYWGQGTLVTVSS VL: not shown		-16.5	
13.1.2 variant L99H-9.2 (antibody, V domains shown, also called Leu99His; 99His) VH: QVQLVESGGGVVQPGRSLRLSCAASGFTFSSYGMHWVRQAPGKGLEWVAVIWYDGSNKYYVDSVKGRFTISRDNSKNTLYLQMNSLRAEDTAVYYCARDGWQQLAPFDYWGQGTLVTVSS VL: not shown		-14.7	
13.1.2 variant L217N-2.1 (antibody, V domains shown, Position 217 of the joint numbering = residue 104 of the heavy chain variable region (heavy chain starts at 114); also called Leu217Asn; 217Asn) VH: QVQLVESGGGVVQPGRSLRLSCAASGFTFSSYGMHWVRQAPGKGLEWVAVIWYDGSNKYYVDSVKGRFTISRDNSKNTLYLQMNSLRAEDTAVYYCARDGWQQNAPFDYWGQGTLVTVSS VL: not shown		-15.5	
13.1.2 variant L217Q-10.1 (antibody, V domains shown, Position 217 of the joint numbering = residue 104 of the heavy chain variable region; also called Leu217Gln; 217Gln) VH: QVQLVESGGGVVQPGRSLRLSCAASGFTFSSYGMHWVRQAPGKGLEWVAVIWYDGSNKYYVDSVKGRFTISRDNSKNTLYLQMNSLRAEDTAVYYCARDGWQQQAPFDYWGQGTLVTVSS VL: not shown		-16.2	
13.1.2 variant Y172R-1.2 (antibody, V domains shown, Position 172 of the joint numbering = residue 59 of the heavy chain variable region; also called Tyr172Arg; 172Arg) VH: QVQLVESGGGVVQPGRSLRLSCAASGFTFSSYGMHWVRQAPGKGLEWVAVIWYDGSNKRYVDSVKGRFTISRDNSKNTLYLQMNSLRAEDTAVYYCARDGWQQLAPFDYWGQGTLVTVSS VL: not shown		-13.9	
13.1.2 variant N35G-3.1 (antibody, V domains shown, also called Asn35Gly; 35Gly) VH: QVQLVESGGGVVQPGRSLRLSCAASGFTFSSYGMHWVRQAPGKGLEWVAVIWYDGSNKYYVDSVKGRFTISRDNSKNTLYLQMNSLRAEDTAVYYCARDGWQQLAPFDYWGQGTLVTVSS VL: DIVMTQTPLSSPVTLGQPASISCRSSQSLVHSDGGTYLSWLHQRPGQPPRLLIYKISNRFSGVPDRFSGSGAGTAFTLKISRVEAEDVGVYYCMQATQLPRTFGQGTKVEIKR		-15.4	
13.1.2 variant L99N-4.1 (antibody, V domains shown, also called Leu99Asn; 99Asn) VH: QVQLVESGGGVVQPGRSLRLSCAASGFTFSSYGMHWVRQAPGKGLEWVAVIWYDGSNKYYVDSVKGRFTISRDNSKNTLYLQMNSLRAEDTAVYYCARDGWQQLAPFDYWGQGTLVTVSS VL: not shown		-13.5	
antibody 131 (antibody, human IgG1, V domains shown, XenoMax derived; variable regions cloned into human IgG1 and IgK expression vectors; also called SC131) VH: QVQLVESGGGVVQSGRSLRLSCAASGFTFRNYGMHWVRQAPGKGLEWVAVIWYDGSDKYYADSVRGRFTISRDNSKNTLYLQMNSLRAEDTAVYYCARDGYDILTGNPRDFDYWGQGTLVTVSS VL: DTVMTQTPLSSHVTLGQPASISCRSSQSLVHSDGNTYLSWLQQRPGQPPRLLIYRISRRFSGVPDRFSGSGAGTDFTLEISRVEAEDVGVYYCMQSTHVPRTFGQGTKVEIK			Kd [3]: 0.05 pM; titer (antigen binding) [4]: > 64 reciprocal dilution; EC50 (read off the curve) [5]: ~0.1 µg/mL
antibody 095 (antibody, human IgG1, V domains shown, Recombinant human IgG1 kappa; also called mAb 095; SC95) VH: QVQLQESGPFLVKPSQTLSLTCTVSGGSISSGGYYWSWIRQHPGKGLEWIGFIYYRGNTYYNPSLKSRVTISVDTSKNQFSLKLSSVTAADTAVYYCARDGYCSRTGCYGGWFDPWGQGTLVTVSP VL: DIVMTQTPLSSPVTLGQPASISCRSSQSLIHTDGNIYLSWLQQRPGQPPRLLIYKISNRFSGVPDRFSGSGAGTDFTLKISRVEAEDVGVYYCMQGTQFPITFGQGTRLEIK	22.6		
antibody 211 (antibody, human IgG1, V domains shown, Recombinant human IgG1 kappa; also called SC211; sc211) VH: QVQLVESGGGVVQPGRSLRLSCVASGFTLSSYGMHWVRQAPGKGLEWVAVTSYDGSKKDYADSAKGRFTISRDNSKNTLYLQMNSLRAEDTAVYYCVSEGYCSSSSCYKYYYYGMDVWGQGTTVTVSS VL: DIVMTQSPLSLPVTPGEPASISCRSSQSLLYRNGNNYLDWYLQRPGQSPQLLIYLGSNRASGVPDRFSGSGSGTDFTLKISRVEAEDVGVYYCMQALQTPRTFGQGTKVEIK	20.8		
